The values that follow come from paper PMC3826667, “S100A9 protein is a novel ligand for the CD85j receptor and its interaction is implicated in the control of HIV-1 replication by NK cells” (Retrovirology, 2013).

The target in this test is T1, recombinant CD85j-Fc fusion protein (human, UniProt Q8NHL6 24-461).
T1 construct: CD85j (LILRB1, ILT2, LIR-1), human; also called CD85j fusion protein; LILRB1; source: bought: R&D System
In words: ELISA; anti-GST mAb-coated wells, 4 ug/mL GST-tagged S100A8 or S100A9 captured, increasing amounts of CD85j-Fc, 2 h at 37°C; detected with HRP anti-human-Fc. The settings on record: both partners purified.

T1 sequence (Q8NHL6 24-461): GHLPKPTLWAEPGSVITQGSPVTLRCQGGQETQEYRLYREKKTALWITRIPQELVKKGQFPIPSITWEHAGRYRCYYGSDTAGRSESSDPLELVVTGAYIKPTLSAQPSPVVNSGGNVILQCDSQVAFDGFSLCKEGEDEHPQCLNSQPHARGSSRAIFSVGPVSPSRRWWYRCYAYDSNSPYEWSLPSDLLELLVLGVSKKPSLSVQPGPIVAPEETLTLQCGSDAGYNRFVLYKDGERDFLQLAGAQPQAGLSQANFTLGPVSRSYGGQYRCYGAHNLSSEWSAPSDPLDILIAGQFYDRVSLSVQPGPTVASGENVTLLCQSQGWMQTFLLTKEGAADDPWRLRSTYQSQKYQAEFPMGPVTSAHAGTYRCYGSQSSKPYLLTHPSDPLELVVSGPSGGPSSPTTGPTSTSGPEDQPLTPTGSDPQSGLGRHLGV

B1: full-length recombinant GST-tagged human S100A9 monomer (natural protein, UniProt P06702 1-114, looked up)
chain: MTCKMSQLERNIETIINTFHQYSVKLGHPDTLNQGEFKELVRKDLQNFLKKENKNEKVIEHIMEDLDTNADKQLSFEEFIMLMARLTWASHEKMHEGDEGPGHHHKPGLGEGTP
notes: S100A9, human, full-length recombinant, GST-tagged; source: bought: Tebu-bio
Consider B1, for which the binding result was “binds”.

B2: recombinant GST-tagged human S100A8 monomer protein (natural protein, UniProt P05109 1-93, looked up)
chain: MLTELEKALNSIIDVYHKYSLIKGNFHAVYRDDLKKLLETECPQYIRKKGADVWFKELDINTDGAVNFQEFLILVIKMGVAAHKKSHEESHKE
notes: S100A8, human, recombinant, GST-tagged; source: bought: Tebu-bio
With B2, the binding result is “binds”.
